These are literature values, as cited in article PMC9453958.

The pKa is the negative logarithm of the acid dissociation constant.

The target of the data set is His64 (UniProt position 63, ILNNGHAFNVE). The experiment in a line: kinetics. The conditions noted are these: wild-type zinc enzyme during catalysis.

With “Carbonic anhydrase II (HCA II) (Homo sapiens)”, the pKa is 7.2 ± 0.1.
